Measured values published in US20240101710A1 (ALLOGENE THERAPEUTICS, published 2024).

Target: T1, anti-BCMA antibody clone C29 Fab
T1 construct: also called anti-BCMA clone C29 Fab
Assay: Biacore (SPR), 25 C, HEPES buffer pH 7.4
Experimental: E10 purified from the hybridoma cell line supernatant was analyzed by Biacore assay against the antigen anti-BCMA clone C29 Fab. The Biacore assay was run, for example, in 10 mM HEPES buffer, with 150 mM NaCl and 0.05% Tween20 at pH 7.4 and 1 mg/mL BSA at 25° C.

T1 sequence (VH, as listed by the source, chain 1 of 2): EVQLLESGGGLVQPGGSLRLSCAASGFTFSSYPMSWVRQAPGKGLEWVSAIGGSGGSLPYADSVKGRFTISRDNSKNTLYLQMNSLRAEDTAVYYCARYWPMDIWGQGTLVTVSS
T1 sequence (VL, as listed by the source, chain 2 of 2): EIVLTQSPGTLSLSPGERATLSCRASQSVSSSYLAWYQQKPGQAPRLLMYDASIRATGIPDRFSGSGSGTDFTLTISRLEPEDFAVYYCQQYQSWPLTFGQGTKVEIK

Kd: 0.11 nM
koff: 0.000157 s⁻¹
kon: 1.48e+06 M⁻¹ s⁻¹
t1/2: 1.23 h
B1: anti-idiotypic antibody clone 87B12.E10 (E10), purified from hybridoma cell line (antibody, V domains shown)
VH: QVQLQQSGPGLVQPSQSLSIPCTVSGFSLTSYDVHWVRQSPGKGLEWLGVIWSGGSTGYNAIFRSRLSINKDNSKSQVFFKMTSLQPDDTAIYYCANFSPWYLPSYWDQGTLVTVSA
VL: QIVLTQSPAIMSASPGEKVTITCSASSNVSYMHWFQQKPGTSPKLWIYSTSNLASGVPARFSGSGSGTSYSLTISRMEAEDAATYYCQQRSSYPLTFGAGTKLELK
notes: Mouse (Balb/c) hybridoma antibody; also called E10 purified Ab from hybridoma cell line
